Reference: article PMC2174332

Molecular target: muscle-specific receptor tyrosine kinase (MuSK), Torpedo orthologue (Torpedo (endogenous in electric tissue))
Experiment: cross-linking

40-kD COOH-terminal fragment of MAGI-1c (Torpedo) (domain or fragment)
percent of total MuSK in the 140-kD cross-link product: < 30%
